What all share (conditions): protein: recombinant; tags: C-terminal 6xHis; label: 5'-biotin; single strand
In data set [1] the target is T1, rAB-Elavl (Acinetobacter baumannii, UniProt D0CAL6 1-86).
T1 sequence: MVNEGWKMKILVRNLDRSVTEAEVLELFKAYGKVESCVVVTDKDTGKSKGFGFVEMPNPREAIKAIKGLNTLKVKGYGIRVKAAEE
The data set is described as follows: AlphaScreen saturation (probe length series); EC50; unit implied; AlphaScreen: 25 mM HEPES pH 7.4, 100 mM NaCl, 0.1% BSA, RT; REMSA: 20 mM HEPES pH 7.5, 50 mM KCl, 450 uM BSA, 0.25% glycerol, RT (gel at 4 C); NMR: 20 mM HEPES. (Alpha assays give light when donor and acceptor beads are brought close together.)

The target in data set [2] is T1, rAB-Elavl. The data set is described as follows: AlphaScreen saturation (probe length series); EC50 not converged; legend: minimal length for binding is 19 nt; AlphaScreen: 25 mM HEPES pH 7.4, 100 mM NaCl, 0.1% BSA, RT; REMSA: 20 mM HEPES pH 7.5, 50 mM KCl, 450 uM BSA, 0.25% glycerol, RT (gel at 4 C); NMR: 20 mM HEPES.
The target of data set [3] is T1, rAB-Elavl. The data set is described as follows: AlphaScreen saturation; EC50, probe titrated, 500 nM protein; AlphaScreen: 25 mM HEPES pH 7.4, 100 mM NaCl, 0.1% BSA, RT; REMSA: 20 mM HEPES pH 7.5, 50 mM KCl, 450 uM BSA, 0.25% glycerol, RT (gel at 4 C); NMR: 20 mM HEPES.
The target in data set [4] is T1, rAB-Elavl. Nature of the data set: HTRF-FRET saturation; EC50; unit implied; legend: not well bound; AlphaScreen: 25 mM HEPES pH 7.4, 100 mM NaCl, 0.1% BSA, RT; REMSA: 20 mM HEPES pH 7.5, 50 mM KCl, 450 uM BSA, 0.25% glycerol, RT (gel at 4 C); NMR: 20 mM HEPES. (In general: TR-FRET usually uses a lanthanide donor and a delayed reading to cut background.)
Data set [5] concerns the target T1, rAB-Elavl. Nature of the data set: HTRF-FRET saturation; EC50; AlphaScreen: 25 mM HEPES pH 7.4, 100 mM NaCl, 0.1% BSA, RT; REMSA: 20 mM HEPES pH 7.5, 50 mM KCl, 450 uM BSA, 0.25% glycerol, RT (gel at 4 C); NMR: 20 mM HEPES.
Data set [6] has as its target T1, rAB-Elavl. Nature of the data set: AlphaScreen saturation (probe length series); EC50; unit implied; named ARE pos 29 nt in text; AlphaScreen: 25 mM HEPES pH 7.4, 100 mM NaCl, 0.1% BSA, RT; REMSA: 20 mM HEPES pH 7.5, 50 mM KCl, 450 uM BSA, 0.25% glycerol, RT (gel at 4 C); NMR: 20 mM HEPES.
For data set [7], the target named is T1, rAB-Elavl. The data set is described as follows: AlphaScreen saturation; EC50, probe titrated, 500 nM protein; conflicts with 35.62 nM in Fig 8C; AlphaScreen: 25 mM HEPES pH 7.4, 100 mM NaCl, 0.1% BSA, RT; REMSA: 20 mM HEPES pH 7.5, 50 mM KCl, 450 uM BSA, 0.25% glycerol, RT (gel at 4 C); NMR: 20 mM HEPES.
Data set [8] concerns the target T1, rAB-Elavl. The data set is described as follows: AlphaScreen time-course kinetics (koff/kon); koff 0.02687 min-1; kon printed as 2.035 M-1 min-1 (exponent apparently lost); AlphaScreen: 25 mM HEPES pH 7.4, 100 mM NaCl, 0.1% BSA, RT; REMSA: 20 mM HEPES pH 7.5, 50 mM KCl, 450 uM BSA, 0.25% glycerol, RT (gel at 4 C); NMR: 20 mM HEPES.

For the molecule AUUAUUUAUUAUUUAUUUA (ssRNA) [ARE pos 19], the “apparent K (half saturation)” value with rAB-Elavl [1] was found to be 64.8 nM.
With AUUAUUUAUUA (ssRNA) [ARE pos 11], in the data set with rAB-Elavl [2], the binding result was “no binding”.
ACCACCCACCACCCACCCACCACCCA (ssRNA) [ARE neg]: the figures for the “apparent K (half saturation)” value with rAB-Elavl [3] and with rAB-Elavl [4] were 257 nM and 946 nM, respectively.
Take AUUAUUUAUUAUUUAUUUAUUAUUUA (ssRNA) [ARE pos]: the “apparent K (half saturation)” value in the data set with rAB-Elavl [5] was determined as 35.1 nM; with rAB-Elavl [6], 35.6 nM; with rAB-Elavl [7], 0.5 nM. In addition, in the data set with rAB-Elavl [8], the Kd was determined as 13.2 nM.

(Values after PMC9313427, “Identification and Characterization of an RRM-Containing, RNA Binding Protein in Acinetobacter baumannii”.)
